Reference: PMC6509496, “Crystal structure of the TreS:Pep2 complex, initiating α-glucan synthesis in the GlgE pathway of mycobacteria” (The Journal of Biological Chemistry, 2019)

B1: Mycobacterium tuberculosis TreS P511W (enzyme)
chain: MNEAEHSVEHPPVQGSHVEGGVVEHPDAKDFGSAAALPADPTWFKHAVFYEVLVRAFFDASADGSGDLRGLIDRLDYLQWLGIDCIWLPPFYDSPLRDGGYDIRDFYKVLPEFGTVDDFVALVDAAHRRGIRIITDLVMNHTSESHPWFQESRRDPDGPYGDYYVWSDTSERYTDARIIFVDTEESNWSFDPVRRQFYWHRFFSHQPDLNYDNPAVQEAMIDVIRFWLGLGIDGFRLDAVPYLFEREGTNCENLPETHAFLKRVRKVVDDEFPGRVLLAEANQWPGDVVEYFGDPNTGGDECHMAFHFPLMPRIFMAVRRESRFPISEIIAQTPPIPDMAQWGIFLRNHDELTLEMVTDEERDYMYAEYAKDPRMKANVGIRRRLAPLLDNDRNQIELFTALLLSLPGSPVLYYGDEIGMGDVIWLGDRDGVRIPMQWTPDRNAGFSTANPGRLYLPPSQDPVYGYQAVNVEAQRDTSTSLLNFTRTMLAVRRRHPAFAVGAFQELGGSNWSVLAYVRQVAGDDGDTVLCVNNLSRFPQPIELDLQQWTNYTPVELTGHVEFPRIGQVPYLLTLPGHGFYWFQLTTHEVGAPPTCGGERRL
notes: also called Mtb TreS-P511W
B2: Mycobacterium tuberculosis TreS R320E (enzyme)
chain: MNEAEHSVEHPPVQGSHVEGGVVEHPDAKDFGSAAALPADPTWFKHAVFYEVLVRAFFDASADGSGDLRGLIDRLDYLQWLGIDCIWLPPFYDSPLRDGGYDIRDFYKVLPEFGTVDDFVALVDAAHRRGIRIITDLVMNHTSESHPWFQESRRDPDGPYGDYYVWSDTSERYTDARIIFVDTEESNWSFDPVRRQFYWHRFFSHQPDLNYDNPAVQEAMIDVIRFWLGLGIDGFRLDAVPYLFEREGTNCENLPETHAFLKRVRKVVDDEFPGRVLLAEANQWPGDVVEYFGDPNTGGDECHMAFHFPLMPRIFMAVREESRFPISEIIAQTPPIPDMAQWGIFLRNHDELTLEMVTDEERDYMYAEYAKDPRMKANVGIRRRLAPLLDNDRNQIELFTALLLSLPGSPVLYYGDEIGMGDVIWLGDRDGVRIPMQWTPDRNAGFSTANPGRLYLPPSQDPVYGYQAVNVEAQRDTSTSLLNFTRTMLAVRRRHPAFAVGAFQELGGSNPSVLAYVRQVAGDDGDTVLCVNNLSRFPQPIELDLQQWTNYTPVELTGHVEFPRIGQVPYLLTLPGHGFYWFQLTTHEVGAPPTCGGERRL
notes: also called Mtb TreS-R320E

Molecular target: the molecule itself
Test: SEC

Protein	binding result
B1	binds
B2	binds
